Consider three molecules from US20260042827A1 (UNIVERSITY HEALTH NETWORK, published 2026).

Experiment [1] deals with T1, HLA-DP4 (human, UniProt P20036 29-222; P04440 30-225, limits assumed).
T1 construct: whole, on cells; also called T2/DP4
The experiment is described as follows: cell-based competitive binding assay on T2/DP4 cells, graded WT1328-348 against reference peptide Oxy271-287.

The target of the next experiment is T2, HLA-DP2 (human, UniProt P20036 29-222; P04440 30-225, limits assumed).
T2 construct: whole, on cells; also called T2 cells transduced with DP2
T2 MHC II alpha: not shown
T2 MHC II beta: not shown
The experiment is described as follows: cell-based competitive binding assay on T2/DP2 cells, reference peptide Oxy271-287.

Experiment [2] addresses T1, HLA-DP4. The experiment in a line: cell-based competitive binding assay on T2/DP4 cells, reference peptide Oxy271-287.
Experiment [3] concerns the target T3, WT1330-348 presented by DP2 on K562 cells (human, UniProt P20036 29-260; P04440 30-258).
T3 construct: whole, on cells; Exogenously pulsed peptide
T3 MHC II alpha: not shown
T3 MHC II beta: not shown
T3 peptide: CNKRYFKLSHLQMHSRKHT
The experiment in a line: flow cytometry on peptide-pulsed K562 transfectants, PE anti-mouse secondary. In general terms: A flow cytometer gives signals particle by particle.

Experiment [4] deals with T4, WT1330-348 presented by DP4 on K562 cells (human, UniProt P20036 29-260; P04440 30-258).
T4 construct: whole, on cells; Exogenously pulsed peptide
Described as above.

The target in experiment [5] is T5, WT1330-348 presented by DP5 on K562 cells (human, UniProt P20036 29-260; P04440 30-258).
T5 construct: whole, on cells; Exogenously pulsed peptide
T5 MHC II alpha: not shown
T5 MHC II beta: not shown
T5 peptide: CNKRYFKLSHLQMHSRKHT
The experiment is described as above.

In a further experiment the target is T6, WT1330-348.
T6 construct: also called WT1 peptide
T6 peptide: CNKRYFKLSHLQMHSRKHT
The experiment is described as follows: biolayer interferometry (Octet Red96), biotinylated peptide on streptavidin tips, 5H2 in solution, steady state fit with 1:1 model. A general note: In BLI a coated tip is dipped into the sample, and binding shifts an interference pattern.

T1 sequence (P20036 29-222 limits assumed, chain 1 of 4, other chains not shown): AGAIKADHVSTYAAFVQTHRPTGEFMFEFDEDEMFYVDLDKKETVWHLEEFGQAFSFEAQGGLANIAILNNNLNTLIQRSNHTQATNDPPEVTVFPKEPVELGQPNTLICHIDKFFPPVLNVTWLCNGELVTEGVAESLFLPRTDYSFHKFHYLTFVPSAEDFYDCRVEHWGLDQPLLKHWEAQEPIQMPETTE
T1 sequence (P04440 30-225 limits assumed, chain 2 of 4, other chains not shown): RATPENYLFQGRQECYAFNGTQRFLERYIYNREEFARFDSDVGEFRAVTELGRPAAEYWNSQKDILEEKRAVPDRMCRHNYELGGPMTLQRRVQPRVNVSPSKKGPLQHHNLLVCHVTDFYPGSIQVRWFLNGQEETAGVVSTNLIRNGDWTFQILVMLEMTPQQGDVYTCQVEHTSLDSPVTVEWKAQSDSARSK

For PGCNKRYFKLSHLQMHSRKHT (also called 21-mer peptide) [WT1328-348], the binding result with HLA-DP4 [1] is “binds”.

B1: WT1235-243 (peptide)
peptide: CMTWNQMNL
notes: Negative control peptide; also called HLA-A2 restricted peptide
On to B1, for which the binding result with HLA-DP2 and in the experiment with HLA-DP4 [2] was “no binding (tested: any tested concentration)” in each case.

B2: WT1-specific mAb, 5H2 (antibody, V domains shown)
VH: EVQLQQSGAELVRPGALVKLSCKASGFNIKDYYMHWVKQRPEQGLEWIGWIDPENGNTIYDPKFQGKASITADTSSNTAYLQLSSLTSGDTAVYYCTRDGYYMVFAYWGQGTLVTVSA
VL: DIQMTQSPSSLSASLGGKVTITCKASQDINKCIAWYKHKPGKGPRLLIHYTSILQPGIPSRFSGSGSGRDYSFSISNLEPEDIATYYCLQYDNLYTFGGGTKLEIK
notes: also called clone 5H2; 5H2 mAb
In the case of B2, the binding result in experiment [3], in experiment [4] and in experiment [5] was “binds” each time. The Kd (as a rule, the equilibrium constant for the complex coming apart) with WT1330-348 was ~50 nM.
